Reference: the supplement of paper PMC9233669
Fewer inactive variants are shown than the library holds.

Legend:
[1] = tested on: biotinyl-Phe-oxazolone; experiment: self-aminoacylation, catalytic enhancement (BFO) (fold over background); higher = more active; k-Seq, kA / k0A0; sequences stand for … in GGGAAUGGAUCCACAUCUACGAAUUC…UUCACUGCAGACUUGACGAAGCUG
Method in brief: (§1)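 Mutagenized RNA pools with a 21-nt variable region (0.43 μM) reacted with each biotinyl-aminoacyl-oxazolone at 2–1250 μM. Reactions ran in 50 μL HEPES/NaCl/KCl/MgCl2/CaCl2 buffer with 5% acetonitrile, pH 6.9–7.0, for 90 minutes at room temperature. Streptavidin-captured RNA was quantified by triplicate qPCR and Illumina sequencing, and per-sequence fraction reacted was fit to a pseudo-first-order model with 1000 bootstraps. Catalytic enhancement is median kA divided by the uncatalyzed rate, the low-activity peak of a bimodal Gaussian fit.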

[2] = tested on: biotinyl-Ile-oxazolone; experiment: self-aminoacylation, catalytic enhancement (BIO) (fold over background); higher = more active; k-Seq, kA / k0A0; sequences stand for … in GGGAAUGGAUCCACAUCUACGAAUUC…UUCACUGCAGACUUGACGAAGCUG
Method in brief: as §1

[3] = tested on: biotinyl-Met-oxazolone; experiment: self-aminoacylation, catalytic enhancement (BMO) (fold over background); higher = more active; k-Seq, kA / k0A0; sequences stand for … in GGGAAUGGAUCCACAUCUACGAAUUC…UUCACUGCAGACUUGACGAAGCUG
Method in brief: as §1

[4] = tested on: biotinyl-Val-oxazolone; experiment: self-aminoacylation, catalytic enhancement (BVO) (fold over background); higher = more active; k-Seq, kA / k0A0; sequences stand for … in GGGAAUGGAUCCACAUCUACGAAUUC…UUCACUGCAGACUUGACGAAGCUG
Method in brief: as §1

[5] = tested on: biotinyl-Leu-oxazolone; experiment: self-aminoacylation, catalytic enhancement (BLO) (fold over background); higher = more active; k-Seq, kA / k0A0; sequences stand for … in GGGAAUGGAUCCACAUCUACGAAUUC…UUCACUGCAGACUUGACGAAGCUG
Method in brief: as §1

[6] = tested on: biotinyl-Trp-oxazolone; experiment: self-aminoacylation, catalytic enhancement (BWO) (fold over background); higher = more active; k-Seq, kA / k0A0; sequences stand for … in GGGAAUGGAUCCACAUCUACGAAUUC…UUCACUGCAGACUUGACGAAGCUG
Method in brief: as §1

Q: How did the self-aminoacylation [1] turn out when “AACUUUGCUAAUAGGCGCAAG [Fam3.1 aminoacylation ribozyme variant]” was run?
A: 3.02

Q: What about the self-aminoacylation [2] of the same sequence?
A: 2.36

Q: What about the self-aminoacylation [3] of the same sequence?
A: 1.7

Q: And the self-aminoacylation [4]?
A: 2.05

Q: What about the self-aminoacylation [5] of the same sequence?
A: 1.79

Q: What about the self-aminoacylation [6] of the same sequence?
A: 1.96

Q: Which self-aminoacylation [1] does the source give for “AACUUUGCUAAUAGUGGCAAG [Fam3.1 aminoacylation ribozyme variant]” here?
A: 1.37

Q: What about the self-aminoacylation [2] of the same sequence?
A: 1.07

Q: And the self-aminoacylation [3]?
A: 0.764

Q: And the self-aminoacylation [4]?
A: 0.919

Q: And the self-aminoacylation [5]?
A: 1.44

Q: And the self-aminoacylation [6]?
A: 1.11

Q: For “AACUUUGCUAAUAGUUGCAAG [Fam3.1 aminoacylation ribozyme variant]”, which self-aminoacylation [1] is on record?
A: 3.03

Q: What about the self-aminoacylation [2] of the same sequence?
A: 2.21

Q: How did the self-aminoacylation [1] turn out when “AACUUUGCUAAUAUUCGCAAG [Fam3.1 aminoacylation ribozyme variant]” was run?
A: 1.42

Q: What about the self-aminoacylation [2] of the same sequence?
A: 1.76

Q: What about the self-aminoacylation [3] of the same sequence?
A: 1.51

Q: And the self-aminoacylation [4]?
A: 1.65

Q: What about the self-aminoacylation [5] of the same sequence?
A: 1.94

Q: What about the self-aminoacylation [6] of the same sequence?
A: 1.75

Q: Which self-aminoacylation [1] does the source give for “AAGAUUGCUAAUAGUCGCAAU [Fam3.1 aminoacylation ribozyme variant]” here?
A: 2.37

Q: And the self-aminoacylation [2]?
A: 1.54

Q: And the self-aminoacylation [3]?
A: 1.85

Q: What about the self-aminoacylation [4] of the same sequence?
A: 1.41

Q: What about the self-aminoacylation [5] of the same sequence?
A: 1.37

Q: What about the self-aminoacylation [6] of the same sequence?
A: 1.14

Q: “AAGAUUGCUAAUAGUCGCGAG [Fam3.1 aminoacylation ribozyme variant]” was tested. Which self-aminoacylation [1] did it give?
A: 1.27

Q: And the self-aminoacylation [2]?
A: 1.3

Q: And the self-aminoacylation [3]?
A: 1.94

Q: And the self-aminoacylation [4]?
A: 1.44

Q: What about the self-aminoacylation [5] of the same sequence?
A: 1.1

Q: What about the self-aminoacylation [6] of the same sequence?
A: 1.1

Q: For “AAGAUUGCUAAUAUUCGCAAG [Fam3.1 aminoacylation ribozyme variant]”, which self-aminoacylation [1] is on record?
A: 1.44

Q: And the self-aminoacylation [2]?
A: 2.02

Q: And the self-aminoacylation [3]?
A: 1.42

Q: And the self-aminoacylation [4]?
A: 1.5

Q: And the self-aminoacylation [5]?
A: 1.58

Q: What about the self-aminoacylation [6] of the same sequence?
A: 2.51

Q: “AAGAUUGCUAAUGGUCGCAAG [Fam3.1 aminoacylation ribozyme variant]” was tested. Which self-aminoacylation [1] did it give?
A: 1.11

Q: What about the self-aminoacylation [2] of the same sequence?
A: 1.21

Q: And the self-aminoacylation [3]?
A: 1.51

Q: What about the self-aminoacylation [4] of the same sequence?
A: 1.14

Q: What about the self-aminoacylation [5] of the same sequence?
A: 1.07

Q: What about the self-aminoacylation [6] of the same sequence?
A: 1.06

Q: Which self-aminoacylation [1] does the source give for “AAGAUUGCUAGUAGUCGCAAG [Fam3.1 aminoacylation ribozyme variant]” here?
A: 1.28

Q: And the self-aminoacylation [2]?
A: 1.36

Q: And the self-aminoacylation [3]?
A: 1.83

Q: And the self-aminoacylation [4]?
A: 1.61

Q: What about the self-aminoacylation [5] of the same sequence?
A: 1.89

Q: And the self-aminoacylation [6]?
A: 1.48

Q: How did the self-aminoacylation [1] turn out when “AAGAUUGCUCAUAGUCGCAAG [Fam3.1 aminoacylation ribozyme variant]” was run?
A: 1.91

Q: And the self-aminoacylation [2]?
A: 1.45

Q: And the self-aminoacylation [3]?
A: 1.56

Q: And the self-aminoacylation [4]?
A: 1.62

Q: And the self-aminoacylation [5]?
A: 1.95

Q: What about the self-aminoacylation [6] of the same sequence?
A: 2.09

Q: For “AAGCUUGCGAAUAGUCGCAAG [Fam3.1 aminoacylation ribozyme variant]”, which self-aminoacylation [1] is on record?
A: 2.7

Q: And the self-aminoacylation [2]?
A: 2.39

Q: And the self-aminoacylation [3]?
A: 2.12

Q: And the self-aminoacylation [4]?
A: 1.64

Q: What about the self-aminoacylation [5] of the same sequence?
A: 2.2

Q: And the self-aminoacylation [6]?
A: 2.32

Q: What does the source list for “AAGCUUGCUAAUACUCGCAAG [Fam3.1 aminoacylation ribozyme variant]”?
A: self-aminoacylation [1]: 1.31; self-aminoacylation [2]: 1.5; self-aminoacylation [3]: 0.693; self-aminoacylation [4]: 1.26; self-aminoacylation [5]: 0.856; self-aminoacylation [6]: 1.98
